According to patent US20210388331A1 (NEURO BIO, published 2021):

Target: T1, α7 nicotinic-receptor (in rat brain slices / rat brain membranes) (rat, UniProt Q05941 23-502)
T1 construct: whole, on cells; also called α7 receptor; alpha-7 nicotinic acetylcholine receptor
Test: [3H] ivermectin displacement, rat brain membranes (told in the legend of FIG. 6 only)

T1 sequence (Q05941 23-502): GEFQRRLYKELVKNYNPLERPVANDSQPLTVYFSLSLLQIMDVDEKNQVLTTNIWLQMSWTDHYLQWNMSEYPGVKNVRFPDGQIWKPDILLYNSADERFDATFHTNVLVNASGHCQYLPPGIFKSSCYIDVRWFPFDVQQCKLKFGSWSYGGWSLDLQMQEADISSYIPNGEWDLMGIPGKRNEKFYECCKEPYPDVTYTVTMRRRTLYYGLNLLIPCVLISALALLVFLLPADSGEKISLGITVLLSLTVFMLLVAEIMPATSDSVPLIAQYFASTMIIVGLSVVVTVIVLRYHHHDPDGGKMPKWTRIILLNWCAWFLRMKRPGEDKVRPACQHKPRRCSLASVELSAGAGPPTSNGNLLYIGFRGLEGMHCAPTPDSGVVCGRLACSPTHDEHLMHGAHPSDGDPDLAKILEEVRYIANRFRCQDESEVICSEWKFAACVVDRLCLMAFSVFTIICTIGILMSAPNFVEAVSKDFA

AEFHRWSSYMVHWK (also called linear T14) [T14 (AChE C-terminal peptide, linear)]: binds.
